Reference: article doi:10.1101/305789
Values joined by “and” are separate entries in the source; they are usually repeats but may differ in a detail not shown here. Equal entries are not always repeated.

Target: Flag-tagged tomato PCNA (Proliferating cell nuclear antigen) (Solanum lycopersicum)
Assay: western blot of anti-Flag immuno-purified protein

stoichiometry N: 2 and 3
Substance: Flag-tagged tomato PCNA (Proliferating cell nuclear antigen) (natural protein)
